Biological target: the molecule itself
Experiment: cryo-EM structure

B1: E. coli MraY (EcMraY), wild type (enzyme)
chain: MLVWLAEHLVKYYSGFNVFSYLTFRAIVSLLTALFISLWMGPRMIAHLQKLSFGQVVRNDGPESHFSKRGTPTMGGIMILTAIVISVLLWAYPSNPYVWCVLVVLVGYGVIGFVDDYRKVVRKDTKGLIARWKYFWMSVIALGVAFALYLAGKDTPATQLVVPFFKDVMPQLGLFYILLAYFVIVGTGNAVNLTDGLDGLAIMPTVFVAGGFALVAWATGNMNFASYLHIPYLRHAGELVIVCTAIVGAGLGFLWFNTYPAQVFMGDVGSLALGGALGIIAVLLRQEFLLVIMGGVFVVETLSVILQVGSFKLRGQRIFRMAPIHHHYELKGWPEPRVIVRFWIISLMLVLIGLATLKVR
stoichiometry N: 2
